Measured values from US20030040050A1 (published 2003).

What was measured:
Flag-TRAF6 = molecular target: T1, Flag-TRAF6 (UniProt Q9Y4K3 1-522); assay: coimmunoprecipitation from transfected 293 cells: IP anti-T7, immunoblot anti-Flag
T1 construct: The anti-TRAF6C peptide covers amino acids 497 to 522, which fits the 522-residue human protein; also called Flag-tagged TRAF6; 2Flag-TRAF6
T1 sequence (looked up): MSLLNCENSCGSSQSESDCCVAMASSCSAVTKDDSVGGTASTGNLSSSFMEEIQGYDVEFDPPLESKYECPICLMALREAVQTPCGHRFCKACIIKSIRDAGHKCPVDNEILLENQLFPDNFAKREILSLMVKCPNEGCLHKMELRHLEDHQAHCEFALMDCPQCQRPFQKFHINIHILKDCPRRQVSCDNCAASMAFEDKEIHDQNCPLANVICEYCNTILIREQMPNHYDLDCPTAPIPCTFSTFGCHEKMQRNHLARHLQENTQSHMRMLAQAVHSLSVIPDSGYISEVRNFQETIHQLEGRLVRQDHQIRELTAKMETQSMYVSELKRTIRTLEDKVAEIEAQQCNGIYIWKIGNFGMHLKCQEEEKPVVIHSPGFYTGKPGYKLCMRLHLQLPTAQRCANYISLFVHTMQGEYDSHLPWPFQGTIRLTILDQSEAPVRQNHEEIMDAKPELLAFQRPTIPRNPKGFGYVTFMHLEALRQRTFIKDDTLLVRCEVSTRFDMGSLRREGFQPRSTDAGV
From the text: (§1) (A) show an association of TAB2 with TRAF8 in mammalian cells. 293 cells were transiently transfected with an expression vector for 2Flag-TRAF6 in combination with empty vector (−) or with expression vectors for T7-TAB2-Full length (Full) (Full), T7-TAB2C (C), or T7-TAB2N (N) as indicated. Cell extracts were immunoprecipitated (IP) with anti-T7 (7) or mouse IgG (C). Coprecipitated Flag-TRAF6 was detected by immunoblotting (IB) with anti-Flag (upper panel, left). The amounts of immunoprecipitated T7-TAB2 proteins were determined with anti-T7 (lower panel). Whole cell extracts were immunoblotted with anti-Flag to determine total amounts of Flag-TRAF6 (upper panel, right).
The present inventors therefore determined whether TAB2 could interact with TRAF6 (FIG. 3A). T7-TAB2 was coexpressed with Flag-tagged TRAF6 in 293 cells and immunoprecipitated with anti-T7 antibody. The immune complexes were subjected to immunoblotting with a monoclonal antibody to Flag. TAB2 efficiently precipitated with TRAF6 (lane 4). To determine which domain of TAB2 is responsible for its TRAF6 association, the inventors tested whether TAB2N or TAB2C is able to bind to TRAF6, using the same experimental procedure. […] Thus, the C-terminal domain of TAB2 is required for TRAF6 binding.

HA-TAK1 = molecular target: T2, HA-TAK1 (UniProt Q62073 1-579, limits assumed); assay: coimmunoprecipitation from transfected 293 cells: IP anti-T7, immunoblot anti-HA
T2 construct: I recall the cited Yamaguchi 1995 clone as mouse TAK1 (Q62073); human TAK1 is O43318; also called HA-tagged TAK1 protein
T2 sequence (looked up): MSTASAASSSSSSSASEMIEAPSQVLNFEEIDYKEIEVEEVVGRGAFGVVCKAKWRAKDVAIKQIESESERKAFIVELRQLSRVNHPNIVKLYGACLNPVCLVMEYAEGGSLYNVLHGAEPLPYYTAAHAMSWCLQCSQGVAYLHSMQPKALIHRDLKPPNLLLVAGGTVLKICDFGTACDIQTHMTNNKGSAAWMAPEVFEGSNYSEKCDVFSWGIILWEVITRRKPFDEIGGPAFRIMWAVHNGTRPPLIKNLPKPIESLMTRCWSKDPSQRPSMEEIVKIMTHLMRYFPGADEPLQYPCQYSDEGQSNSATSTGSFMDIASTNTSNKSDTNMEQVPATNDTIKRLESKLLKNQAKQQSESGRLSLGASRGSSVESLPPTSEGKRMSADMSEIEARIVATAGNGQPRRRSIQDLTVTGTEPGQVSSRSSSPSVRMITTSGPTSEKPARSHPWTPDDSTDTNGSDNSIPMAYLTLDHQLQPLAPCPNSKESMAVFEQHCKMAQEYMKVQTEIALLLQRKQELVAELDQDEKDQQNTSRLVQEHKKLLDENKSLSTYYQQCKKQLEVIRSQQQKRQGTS
Description: as §1, with “293” for “(A) show an association of TAB2 with TRAF8 in mammalian cells. 293”, “HA-TAK1” for “2Flag-TRAF6”, “length” for “length (Full)”, “HA-TAK1” for “Flag-TRAF6”, “anti-HA” for “anti-Flag”, “right). Schematic representation of various TAB2 constructs is shown in the lower part. The coiled-coil regions are indicated by solid boxes.” for “right).”

binding result (Flag-TRAF6): no binding
binding result (HA-TAK1): no binding
B1: T7-TAB2N (other)
chain: MASMTGGQQMGMAQGSHQIDFQVLHDLRQKFPEVPEVVVSRCMLQNNNNLDACCAVLSQESTRYLYGEGDLNFSDDSGISGLRNHMTSLNLDLQSQNIYHHGREGSRMNGSRTLTHSISDGQLQGGQSNSELFQQEPQTAPAQVPQGFNVFGMSSSSGASNSAPHLGFHLGSKGTSSLSQQTPRFNPIMVTLAPNIQTGRNTPTSLHIHGVPPPVLNSPQGNSIYIRPYITTPGGTTRQTQQHSGWVSQFNPMNPQQVYQPSQPGPWTTCPASNPLSHTSSQQPNQQGHQTSHVYMPISSPTTSQPPTIHSSGSSQSSAHSQYNIQNISTGPRKNQIEIKLEPPQRNNSSKLRSSGPRTSSTSSSVNSQTLNRNQPTVYIAASPPNTDELMSRSQPKVYISANAATGDEQV
notes: Expressed in 293 cells; also called N (1-400)
